Experimental data from patent publication US20200317768A1 (published 2020).

T1: cynomolgus monkey FcγRIIa1 extracellular domain, His-tagged (cynomolgus monkey)
T1 construct: also called cyno FcγRIIa1; FcgRIIa1; not shown: C-terminal His-tag
T1 chain: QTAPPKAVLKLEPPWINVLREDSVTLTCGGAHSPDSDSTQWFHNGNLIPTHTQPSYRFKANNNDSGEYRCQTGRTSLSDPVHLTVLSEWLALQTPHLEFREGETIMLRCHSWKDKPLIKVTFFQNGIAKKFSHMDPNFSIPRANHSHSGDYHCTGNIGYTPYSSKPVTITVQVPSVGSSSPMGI

T2: human FcγRIIb extracellular domain, His-tagged (human, UniProt P31994 43-217)
T2 construct: also called FcgRIIb (human); not shown: C-terminal His-tag
T2 sequence: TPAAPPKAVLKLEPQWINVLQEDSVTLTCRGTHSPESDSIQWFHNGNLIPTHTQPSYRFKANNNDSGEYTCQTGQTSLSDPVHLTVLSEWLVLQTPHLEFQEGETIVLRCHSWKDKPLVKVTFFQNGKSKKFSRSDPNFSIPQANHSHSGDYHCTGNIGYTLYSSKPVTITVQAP

T3: cynomolgus monkey FcγRIIa2 extracellular domain, His-tagged (cynomolgus monkey)
T3 construct: also called cyno FcγRIIa2; FcgRIIa2; not shown: C-terminal His-tag
T3 chain: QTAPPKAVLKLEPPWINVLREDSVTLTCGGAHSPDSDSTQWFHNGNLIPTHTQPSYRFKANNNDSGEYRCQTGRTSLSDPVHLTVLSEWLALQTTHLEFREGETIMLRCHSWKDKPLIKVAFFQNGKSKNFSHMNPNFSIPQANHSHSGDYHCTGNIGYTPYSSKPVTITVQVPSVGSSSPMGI

T4: human FcγRIIaH extracellular domain, His-tagged (human, UniProt P12318 34-217)
T4 construct: also called human FcγRIIa (type H); FcgRIIaH; not shown: C-terminal His-tag
T4 sequence: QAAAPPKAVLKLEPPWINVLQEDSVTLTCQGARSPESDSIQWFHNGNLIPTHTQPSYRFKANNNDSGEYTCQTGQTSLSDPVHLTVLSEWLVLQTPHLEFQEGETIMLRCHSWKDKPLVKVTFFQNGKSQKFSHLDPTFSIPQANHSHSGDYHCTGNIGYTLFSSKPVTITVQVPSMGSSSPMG

T5: cynomolgus monkey FcγRIIa3 extracellular domain, His-tagged (cynomolgus monkey)
T5 construct: also called cyno FcγRIIa3; FcgRIIa3; not shown: C-terminal His-tag
T5 chain: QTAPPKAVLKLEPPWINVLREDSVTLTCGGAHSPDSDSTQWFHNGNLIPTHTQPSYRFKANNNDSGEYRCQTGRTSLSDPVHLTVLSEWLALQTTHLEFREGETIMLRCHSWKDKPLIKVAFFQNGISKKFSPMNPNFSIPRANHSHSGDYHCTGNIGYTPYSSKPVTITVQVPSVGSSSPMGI

T6: human FcγRIIaR extracellular domain, His-tagged (human, UniProt P12318 34-217)
T6 construct: also called human FcγRIIa (type R); FcgRIIaR; not shown: C-terminal His-tag
T6 chain: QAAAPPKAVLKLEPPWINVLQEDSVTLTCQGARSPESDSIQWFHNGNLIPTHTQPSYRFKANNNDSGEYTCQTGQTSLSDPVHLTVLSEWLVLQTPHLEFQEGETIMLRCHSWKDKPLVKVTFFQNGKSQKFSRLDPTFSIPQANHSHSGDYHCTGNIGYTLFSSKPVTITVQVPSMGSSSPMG

T7: cynomolgus monkey FcγRIIb extracellular domain, His-tagged (cynomolgus monkey)
T7 construct: also called cyno FcγRIIb; cynoFcγRIIb; not shown: C-terminal His-tag
T7 chain: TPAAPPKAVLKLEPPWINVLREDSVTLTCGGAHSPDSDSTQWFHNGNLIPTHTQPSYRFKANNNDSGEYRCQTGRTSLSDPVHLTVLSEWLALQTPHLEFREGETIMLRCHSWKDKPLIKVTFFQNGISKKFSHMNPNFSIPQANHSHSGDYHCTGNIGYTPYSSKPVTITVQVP

T8: cynomolgus monkey FcγRIIIaS extracellular domain, His-tagged (cynomolgus monkey, UniProt Q8SPW2 21-206 at identity 1.00))
T8 construct: also called cyno FcγRIIIaS; FcgRIIIaS; not shown: C-terminal His-tag
T8 chain: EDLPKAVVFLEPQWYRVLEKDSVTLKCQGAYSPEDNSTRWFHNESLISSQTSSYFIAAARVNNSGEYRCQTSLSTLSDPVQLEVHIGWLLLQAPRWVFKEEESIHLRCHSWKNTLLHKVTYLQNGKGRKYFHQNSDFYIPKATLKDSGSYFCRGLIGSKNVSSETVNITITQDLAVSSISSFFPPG


What was measured:
Assay in all cases: SPR (BIACORE), 25 C, antibody captured, FcgR as analyte; KD of SG1 divided by KD of variant;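 further: relative to parent M103205H795-SG1 carrying the SG1 human heavy chain constant region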
[1] = biological target: T1, cynomolgus monkey FcγRIIa1 …
Protocol: (§1) The kinetic analysis of interactions between these antibodies and FcγR was carried out using BIACORE® T200 or BIACORE® 4000 (GE Healthcare). HBS-EP+ (GE Healthcare) was used as the running buffer, and the measurement temperature was set to 25° C. A chip produced by immobilizing Protein A. Protein A/G or mouse anti-human IgG kappa light chain (BD Biosciences) onto a Series S Sensor Chip CM4 or CM5 (GE Healthcare) by the amine-coupling method was used. […] After the measurement, the antibody captured on the chip was washed off by allowing reaction with 10 mM glycine-HCl, pH1.5 and 25 mM NaOH so that the chip was regenerated and used repeatedly. The sensorgrams obtained as measurement results were analyzed by the 1:1 Langmuir binding model using the BIACORE® Evaluation Software to calculate the binding rate constant ka (L/mol/s) and dissociation rate constant kd (l/s), and the dissociation constant KD (mol/L) was calculated from these values. […] Regarding such interactions, KD values were calculated using the following 1:1 binding model described in BIACORE® T100 Software Handbook BR1006-48 Edition AE.

[2] = biological target: T2, human FcγRIIb extracellular domain, …
Protocol: as §1

[3] = biological target: T3, cynomolgus monkey FcγRIIa2 …
Protocol: as §1

[4] = biological target: T4, human FcγRIIaH extracellular domain, …
Protocol: as §1

[5] = biological target: T5, cynomolgus monkey FcγRIIa3 …
Protocol: as §1

[6] = biological target: T6, human FcγRIIaR extracellular domain, …
Protocol: as §1

[7] = biological target: T9, human FcγRIIIaV extracellular domain, His-tagged (human, UniProt P08637 17-208)
T9 construct: also called human FcγRIIIa (V158); FcgRIIIaV; not shown: C-terminal His-tag
Protocol: as §1

[8] = biological target: T7, cynomolgus monkey FcγRIIb extracellular …
Protocol: as §1

[9] = biological target: T8, cynomolgus monkey FcγRIIIaS …
Protocol: as §1

T9 sequence (P08637 17-208 F176V): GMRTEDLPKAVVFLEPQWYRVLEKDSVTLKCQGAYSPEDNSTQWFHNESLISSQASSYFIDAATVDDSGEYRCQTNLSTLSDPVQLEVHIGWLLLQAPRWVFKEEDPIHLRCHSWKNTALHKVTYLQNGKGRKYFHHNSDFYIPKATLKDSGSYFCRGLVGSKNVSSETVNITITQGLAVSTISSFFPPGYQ

KD fold (SG1 = 1) [1]	KD fold (SG1 = 1) [2]	KD fold (SG1 = 1) [3]	KD fold (SG1 = 1) [4]	KD fold (SG1 = 1) [5]	KD fold (SG1 = 1) [6]	KD fold (SG1 = 1) [7]	KD fold (SG1 = 1) [8]	KD fold (SG1 = 1) [9]	Binder
0.9 fold	1.6 fold	1.6 fold	1.9 fold	1.6 fold	1.8 fold	0.1 fold	2 fold	0.1 fold	M103205H795-MY452 / M103202L889-SK1 (antibody, human IgG1, kappa, substitution positions are EU numbers) heavy: QVTLKESGPVLVKPTETLTLTCTVSGIDLSHDDISWVRQAPGKGLEWVGIISYAGSTYYASWAKGRLTISKDTSKNQVVLTMTNMDPVDTATYYCARGVPAYSHGGDLWGQGTLVTVSSASTKGPSVFPLAPSSKSTSGGTAALGCLVKDYFPEPVTVSWNSGALTSGVHTFPAVLQSSGLYSLSSVVTVPSSSLGTQTYICNVNHKPSNTKVDKKVEPKSCDKTHTCPPCPAQELLTGPSVFLFPPKPKDTLMISRTPEVTCVVVDVSDEDPEVKFNWYVDGVEVHNAKTKPREEQYNSTYRVVSVLTVLHQDWLNGKEYKCKVSNKALPKPIEKTISKAKGQPREPQVYTLPPSREEMTKNQVSLTCLVKGFYPSDIAVEWESNGQPENNYKTTPPVLDSDGSFFLYSKLTVDKSRWQQGNVFSCSVMHEALHNHYTQKSLSLSP light: DIVMTQSPATLSLSPGERATLSCTSSQSVYHANWLSWFQQKPGQPPKLLIYWASTLAYGVPSRFSGSGSGTDFTLTISSLQPEDAATYYCAGGYGGGRYAFGQGTKVEIKRTVAAPSVFIFPPSDEQLKSGTASVVCLLNNFYPREAKVQWKVDNALQSGNSQESVTEQDSKDSTYSLSSTLTLSKADYEKHKVYACEVTHQGLSSPVTKSFNRGEC
0.8 fold	1.5 fold	1.6 fold	1.7 fold	1.2 fold	1.4 fold	0.1 fold	1.3 fold	0.1 fold	M103205H795-MY454 / M103202L889-SK1 (antibody, human IgG1, kappa, substitution positions are EU numbers) heavy: QVTLKESGPVLVKPTETLTLTCTVSGIDLSHDDISWVRQAPGKGLEWVGIISYAGSTYYASWAKGRLTISKDTSKNQVVLTMTNMDPVDTATYYCARGVPAYSHGGDLWGQGTLVTVSSASTKGPSVFPLAPSSKSTSGGTAALGCLVKDYFPEPVTVSWNSGALTSGVHTFPAVLQSSGLYSLSSVVTVPSSSLGTQTYICNVNHKPSNTKVDKKVEPKSCDKTHTCPPCPASELLTGPSVFLFPPKPKDTLMISRTPEVTCVVVDVSDEDPEVKFNWYVDGVEVHNAKTKPREEQYNSTYRVVSVLTVLHQDWLNGKEYKCKVSNKALPKPIEKTISKAKGQPREPQVYTLPPSREEMTKNQVSLTCLVKGFYPSDIAVEWESNGQPENNYKTTPPVLDSDGSFFLYSKLTVDKSRWQQGNVFSCSVMHEALHNHYTQKSLSLSP light: DIVMTQSPATLSLSPGERATLSCTSSQSVYHANWLSWFQQKPGQPPKLLIYWASTLAYGVPSRFSGSGSGTDFTLTISSLQPEDAATYYCAGGYGGGRYAFGQGTKVEIKRTVAAPSVFIFPPSDEQLKSGTASVVCLLNNFYPREAKVQWKVDNALQSGNSQESVTEQDSKDSTYSLSSTLTLSKADYEKHKVYACEVTHQGLSSPVTKSFNRGEC
0.5 fold	0.7 fold	0.5 fold	0.9 fold	0.8 fold	0.7 fold	0.1 fold	0.3 fold	0.1 fold	M103205H795-MY453 / M103202L889-SK1 (antibody, human IgG1, kappa, substitution positions are EU numbers) heavy: QVTLKESGPVLVKPTETLTLTCTVSGIDLSHDDISWVRQAPGKGLEWVGIISYAGSTYYASWAKGRLTISKDTSKNQVVLTMTNMDPVDTATYYCARGVPAYSHGGDLWGQGTLVTVSSASTKGPSVFPLAPSSKSTSGGTAALGCLVKDYFPEPVTVSWNSGALTSGVHTFPAVLQSSGLYSLSSVVTVPSSSLGTQTYICNVNHKPSNTKVDKKVEPKSCDKTHTCPPCPARELLTGPSVFLFPPKPKDTLMISRTPEVTCVVVDVSDEDPEVKFNWYVDGVEVHNAKTKPREEQYNSTYRVVSVLTVLHQDWLNGKEYKCKVSNKALPKPIEKTISKAKGQPREPQVYTLPPSREEMTKNQVSLTCLVKGFYPSDIAVEWESNGQPENNYKTTPPVLDSDGSFFLYSKLTVDKSRWQQGNVFSCSVMHEALHNHYTQKSLSLSP light: DIVMTQSPATLSLSPGERATLSCTSSQSVYHANWLSWFQQKPGQPPKLLIYWASTLAYGVPSRFSGSGSGTDFTLTISSLQPEDAATYYCAGGYGGGRYAFGQGTKVEIKRTVAAPSVFIFPPSDEQLKSGTASVVCLLNNFYPREAKVQWKVDNALQSGNSQESVTEQDSKDSTYSLSSTLTLSKADYEKHKVYACEVTHQGLSSPVTKSFNRGEC
